Results from patent US20130157929A1, “GLUCAGON ANALOGUES” (ZEALAND PHARMA A/S, published 2013).
Starred links: 1 amine or outer side, 2 acyl side, 3 side chain; linkers in the order of their positions; H or OH if unused. Non-standard residues stand in square brackets, D forms with d. Groups on a side chain read outwards from the residue. *: point of attachment. γGlu = O=C(O)[C@H](CCC(=O)[*:2])N[*:1]; Palmitoyl = CCCCCCCCCCCCCCCC(=O)*; 3Pal = N[C@@H](Cc1cccnc1)C(=O)O; Cit = NC(=O)NCCC[C@H](N)C(=O)O; hSer = N[C@@H](CCO)C(=O)O; Aib = CC(C)(N)C(=O)O

B1: Compound 22 (peptide)
peptide: H-H[Aib][3‑(2-furyl)alanyl]GTFTSDYSKYLDSK([γGlu-Palmitoyl])AAHDFVEWLLSA-NH2
B2: Compound 27 (peptide)
peptide: H-H[Aib][3‑(3-thienyl)alanyl]GTFTSDYSKYLDSK([γGlu-Palmitoyl])AAHDFVEWLLSA-NH2
B3: Compound 1 (peptide)
peptide: H-H[Aib]HGTFTSDYSKYLDSK([γGlu-Palmitoyl])AAHDFVEWLLSA-NH2
SMILES: CCCCCCCCCCCCCCCC(=O)N[C@@H](CCC(=O)NCCCC[C@H](NC(=O)[C@H](CO)NC(=O)[C@H](CC(=O)O)NC(=O)[C@H](CC(C)C)NC(=O)[C@H](Cc1ccc(O)cc1)NC(=O)[C@H](CCCCN)NC(=O)[C@H](CO)NC(=O)[C@H](Cc1ccc(O)cc1)NC(=O)[C@H](CC(=O)O)NC(=O)[C@H](CO)NC(=O)[C@@H](NC(=O)[C@H](Cc1ccccc1)NC(=O)[C@@H](NC(=O)CNC(=O)[C@H](Cc1c[nH]cn1)NC(=O)C(C)(C)NC(=O)[C@@H](N)Cc1c[nH]cn1)[C@@H](C)O)[C@@H](C)O)C(=O)N[C@@H](C)C(=O)N[C@@H](C)C(=O)N[C@@H](Cc1c[nH]cn1)C(=O)N[C@@H](CC(=O)O)C(=O)N[C@@H](Cc1ccccc1)C(=O)N[C@H](C(=O)N[C@@H](CCC(=O)O)C(=O)N[C@@H](Cc1c[nH]c2ccccc12)C(=O)N[C@@H](CC(C)C)C(=O)N[C@@H](CC(C)C)C(=O)N[C@@H](CO)C(=O)N[C@@H](C)C(N)=O)C(C)C)C(=O)O
B4: Compound 24 (peptide)
peptide: H-H[Aib][3Pal]GTFTSDYSKYLDSK([γGlu-Palmitoyl])AAHDFVEWLLSA-NH2
B5: Compound 26 (peptide)
peptide: H-H[Aib][3‑(2-thienyl)alanyl]GTFTSDYSKYLDSK([γGlu-Palmitoyl])AAHDFVEWLLSA-NH2
B6: Compound 28 (peptide)
peptide: H-H[Aib][3‑(1-pyrazolyl)alanyl]GTFTSDYSKYLDSK([γGlu-Palmitoyl])AAHDFVEWLLSA-NH2
B7: Compound 25 (peptide)
peptide: H-H[Aib][3‑(1,2,4-triazol-1-yl)alanyl]GTFTSDYSKYLDSK([γGlu-Palmitoyl])AAHDFVEWLLSA-NH2
B8: Compound 23 (peptide)
peptide: H-H[Aib][3‑(4-thiazolyl)alanyl]GTFTSDYSKYLDSK([γGlu-Palmitoyl])AAHDFVEWLLSA-NH2
B9: Compound 29 (peptide)
peptide: H-H[Aib][hSer]GTFTSDYSKYLDSK([γGlu-Palmitoyl])AAHDFVEWLLSA-NH2
B10: Compound 21 (peptide)
peptide: H-H[Aib][Cit]GTFTSDYSKYLDSK([γGlu-Palmitoyl])AAHDFVEWLLSA-NH2
SMILES: CCCCCCCCCCCCCCCC(=O)N[C@@H](CCC(=O)NCCCC[C@H](NC(=O)[C@H](CO)NC(=O)[C@H](CC(=O)O)NC(=O)[C@H](CC(C)C)NC(=O)[C@H](Cc1ccc(O)cc1)NC(=O)[C@H](CCCCN)NC(=O)[C@H](CO)NC(=O)[C@H](Cc1ccc(O)cc1)NC(=O)[C@H](CC(=O)O)NC(=O)[C@H](CO)NC(=O)[C@@H](NC(=O)[C@H](Cc1ccccc1)NC(=O)[C@@H](NC(=O)CNC(=O)[C@H](CCCNC(N)=O)NC(=O)C(C)(C)NC(=O)[C@@H](N)Cc1c[nH]cn1)[C@@H](C)O)[C@@H](C)O)C(=O)N[C@@H](C)C(=O)N[C@@H](C)C(=O)N[C@@H](Cc1c[nH]cn1)C(=O)N[C@@H](CC(=O)O)C(=O)N[C@@H](Cc1ccccc1)C(=O)N[C@H](C(=O)N[C@@H](CCC(=O)O)C(=O)N[C@@H](Cc1c[nH]c2ccccc12)C(=O)N[C@@H](CC(C)C)C(=O)N[C@@H](CC(C)C)C(=O)N[C@@H](CO)C(=O)N[C@@H](C)C(N)=O)C(C)C)C(=O)O
B11: Compound 31 (peptide)
peptide: H-H[Aib]HGTFTSDYSKYLESK([γGlu-Palmitoyl])AAEEFVEWLLEA-NH2
SMILES: CCCCCCCCCCCCCCCC(=O)N[C@@H](CCC(=O)NCCCC[C@H](NC(=O)[C@H](CO)NC(=O)[C@H](CCC(=O)O)NC(=O)[C@H](CC(C)C)NC(=O)[C@H](Cc1ccc(O)cc1)NC(=O)[C@H](CCCCN)NC(=O)[C@H](CO)NC(=O)[C@H](Cc1ccc(O)cc1)NC(=O)[C@H](CC(=O)O)NC(=O)[C@H](CO)NC(=O)[C@@H](NC(=O)[C@H](Cc1ccccc1)NC(=O)[C@@H](NC(=O)CNC(=O)[C@H](Cc1c[nH]cn1)NC(=O)C(C)(C)NC(=O)[C@@H](N)Cc1c[nH]cn1)[C@@H](C)O)[C@@H](C)O)C(=O)N[C@@H](C)C(=O)N[C@@H](C)C(=O)N[C@@H](CCC(=O)O)C(=O)N[C@@H](CCC(=O)O)C(=O)N[C@@H](Cc1ccccc1)C(=O)N[C@H](C(=O)N[C@@H](CCC(=O)O)C(=O)N[C@@H](Cc1c[nH]c2ccccc12)C(=O)N[C@@H](CC(C)C)C(=O)N[C@@H](CC(C)C)C(=O)N[C@@H](CCC(=O)O)C(=O)N[C@@H](C)C(N)=O)C(C)C)C(=O)O

Key:
[1] = molecular target: human glucagon receptor (glucagon-R) (human, UniProt P47871); test: cell-based or functional assay
[2] = molecular target: human glucagon-like peptide 1 receptor (GLP-1R) (human, UniProt P43220); test: cell-based or functional assay

Row | Binder | EC50 (nM) GluR, cAMP formation [1] | EC50 (nM) GLP-1R, cAMP formation [2]
1 | B1 | 3.8 nM | 0.06 nM
2 | B2 | 1.58 nM | 0.27 nM
3 | B3 | 0.26 nM | 0.21 nM
4 | B4 | 1.04 nM | 0.14 nM
5 | B5 | 1.16 nM | 0.08 nM
6 | B6 | 4.85 nM | 0.11 nM
7 | B7 | 0.71 nM | 0.09 nM
8 | B8 | 0.99 nM | 0.11 nM
9 | B9 | 0.79 nM | 0.05 nM
10 | B10 | 35 nM | 1.2 nM
11 | B11 | 0.15 nM | 0.09 nM
